Source: publication PMC3130806

Key:
[1] = target: FITC-labeled native contortrostatin (Agkistrodon contortrix contortrix); assay: fluorescence polarisation
[2] = target: FITC-labeled vicrostatin (Agkistrodon contortrix contortrix | not stated); assay: fluorescence polarisation

Substance	Kd [1] [nM]	Kd [2] [nM]
purified soluble αvβ3 integrin (from UniProt P06756 31-1048; P05106 27-718) (receptor)	6.6	7.4
purified soluble αvβ5 integrin (from UniProt P06756 31-1048; P18084 24-719) (receptor)	19.5	41.2
soluble recombinant α5β1 integrin (from UniProt P08648 42-1049; P05556 21-728) (receptor)	191	15.2
